Positions count from the first letter of the chain named.
Legend:
HIZR-1 WT [1] = target: T1, HIZR-1 WT (Caenorhabditis elegans, UniProt G5ED47 1-412); assay: competition; EMSA; 5-5000 nM unlabeled mutant vs labeled HZA; does not compete; Licor Odyssey EMSA Buffer Kit per manufacturer; buffer composition, salt, pH and temperature not stated; conditions: protein: recombinant; tags: N-terminal 6xHis (pTrcHisA)
T1 sequence: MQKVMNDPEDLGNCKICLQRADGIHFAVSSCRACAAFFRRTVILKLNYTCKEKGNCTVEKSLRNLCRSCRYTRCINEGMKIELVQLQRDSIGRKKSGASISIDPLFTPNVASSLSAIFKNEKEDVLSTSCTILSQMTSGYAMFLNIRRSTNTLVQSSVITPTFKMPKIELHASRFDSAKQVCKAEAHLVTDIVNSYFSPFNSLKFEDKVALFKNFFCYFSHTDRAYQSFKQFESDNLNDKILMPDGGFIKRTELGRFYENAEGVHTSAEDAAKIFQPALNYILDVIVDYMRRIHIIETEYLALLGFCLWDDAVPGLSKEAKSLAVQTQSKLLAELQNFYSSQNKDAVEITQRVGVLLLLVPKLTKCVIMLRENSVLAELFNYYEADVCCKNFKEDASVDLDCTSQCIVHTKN

HIZR-1 S30L = target: T2, HIZR-1 S30L (Caenorhabditis elegans, UniProt G5ED47 1-412, S30L); assay: EMSA; legend: not bound; text: dramatically reduced; faint fast band of unknown significance; Licor Odyssey EMSA Buffer Kit per manufacturer; buffer composition, salt, pH and temperature not stated; conditions: protein: recombinant; tags: N-terminal 6xHis (pTrcHisA); label: IRDye700
T2 sequence: T1 sequence with S30L

HIZR-1 G23E = target: T3, HIZR-1 G23E (Caenorhabditis elegans, UniProt G5ED47 1-412, G23E); assay: EMSA; legend: not bound; text: dramatically reduced; Licor Odyssey EMSA Buffer Kit per manufacturer; buffer composition, salt, pH and temperature not stated; conditions: protein: recombinant; tags: N-terminal 6xHis (pTrcHisA); label: IRDye700
T3 sequence: T1 sequence with G23E

HIZR-1 R63C = target: T4, HIZR-1 R63C (Caenorhabditis elegans, UniProt G5ED47 1-412, R63C); assay: as above; conditions: protein: recombinant; tags: N-terminal 6xHis (pTrcHisA); label: IRDye700
T4 sequence: T1 sequence with R63C

HIZR-1 WT [2] = target: T1, HIZR-1 WT; assay: EMSA; apparent Kd; constant protein, variable labeled DNA; Licor Odyssey EMSA Buffer Kit per manufacturer; buffer composition, salt, pH and temperature not stated; conditions: protein: recombinant; tags: N-terminal 6xHis (pTrcHisA); label: IRDye700

B1: Mutant HZA, unlabeled competitor (dsDNA)
DNA 1: TGTGTTATCAGAACATACAACATTAATGTCTCGAG
DNA 2: CTCGAGACATTAATGTTGTATGTTCTGATAACACA
HIZR-1 WT [1]
  binding result: no binding

B2: HZA WT, labeled (cdf-2 promoter) (dsDNA)
DNA 1: TGTGTTATCAATCATAAACTAGAACATGTCTCGAG
DNA 2: CTCGAGACATGTTCTAGTTTATGATTGATAACACA
HIZR-1 S30L
  binding result: no binding
HIZR-1 G23E
  binding result: no binding
HIZR-1 R63C
  binding result: no binding
HIZR-1 WT [2]
  Kd: 20.4 ± 6.8 nM
